# Measurements: patent publication US20090203610A1, “METHODS OF TREATING OBESITY OR DIABETES USING NT-4/5” (RINAT NEUROSCIENCE CORPORATION, priority 2004, published 2009)
# T1: p75NTR (Homo sapiens, UniProt P08138)
# T1 sequence (P08138 29-427): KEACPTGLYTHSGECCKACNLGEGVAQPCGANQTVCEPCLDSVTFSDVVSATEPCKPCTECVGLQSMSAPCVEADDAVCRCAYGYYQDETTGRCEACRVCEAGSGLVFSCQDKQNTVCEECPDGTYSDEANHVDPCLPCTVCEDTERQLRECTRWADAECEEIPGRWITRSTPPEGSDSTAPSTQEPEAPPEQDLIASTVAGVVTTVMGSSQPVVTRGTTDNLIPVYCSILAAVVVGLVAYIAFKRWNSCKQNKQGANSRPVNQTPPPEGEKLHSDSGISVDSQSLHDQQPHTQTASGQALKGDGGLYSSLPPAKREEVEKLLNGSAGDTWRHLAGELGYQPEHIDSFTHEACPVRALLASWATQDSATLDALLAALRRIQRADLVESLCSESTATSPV
# B1: NT-4/5: mature human neurotrophin-4/5 (SEQ ID NO:1), obtained from Genentech or produced in E. coli (protein, listed as Homo sapiens)
# chain: GVSETAPASRRGELAVCDAVSGWVTDRRTAVDLRGREVEVLGEVPAAGGSPLRQYFFETRCKADNAEEGGPGAGGGGCRGVDRRHWVSECKAKQSYVRALTADAQGRVGWRWIRIDTACVCTLLSRTGRA
# Experiments:
# p75NTR = biological target: T1, p75NTR; conditions: low affinity receptor (LNGFR, p75NTR); cited from earlier work
# db/db mice [1] = assay: Dose response of NT-4/5 on food intake of db/db mice (Example 2); format: in vivo
# Experimental: Db/db mice maintained as described in Example 1 were divided into five groups (groups 1-5). Group 1 (7 mice) were administered with vehicle (PBS). Group 2 (7 mice), group 3 (8 mice), group 4 (8 mice), group 5 (8 mice) were each administered with NT-4/5 at the doses of 2 mg/kg, 5 mg/kg, 10 mg/kg, and 20 mg/kg, respectively. Both the vehicle and NT-4/5 were administered to each group of the mice subcutaneously once daily for five days. One day before beginning the treatment (T0), blood samples were collected from the mice as described previously for the determination of baseline levels of serum biomarkers (glucose, triglyceride, and cholesterol). Similarly, at day 6 (T6), blood samples were collected for the determination of serum biomarker levels. The blood samples were treated in the same manner as described in Example 1.
# […] Individual body weights were also measured daily from 6 days before the treatment (T-5) to day 7 (T7).
# db/db mice [2] = assay: Triglyceride after two weeks daily s.c. NT-4/5 in db/db mice (Example 2); format: in vivo; conditions: day 14; 2, 5, 10 or 20 mg/kg s.c. daily for two weeks
# Experimental: In another experiment, db/db mice were subcutaneously injected with vehicle (PBS) or NT-4/5 at 2 mg/kg, 5 mg/kg, 10 mg/kg, or 20 mg/kg daily for two weeks.
# DIO mice = assay: Respiratory quotient and energy expenditure by indirect calorimetry (CCMS) in DIO mice (Example 9); format: in vivo
# From the text: Test animals: Mice with diet induced obesity (DIO) were used in this study. 29 male C57BL/6J mice were weaned at 4 weeks of age. Immediately after weaning they were put on 58% high fat diet (D12331i, Research Diet) through out the study. The DIO mice at 13 weeks of age weighing in the range of 28-40 g were used in this study.
# Administration of NT-4/5: NT-4/5 was obtained from Genentech Inc. or produced as described in U.S. Pat. No. 6,184,360. The mice were divided into 2 groups of equivalent body weight distribution (8 mice per group). The mice were acclimated individually in the Comprehensive Cage Monitoring System (CCMS, Columbus Instruments) for 2 days, in preparation for the indirect calorimetry, before the treatment started. Each group received 5 daily subcutaneous doses of either vehicle or 10 mg/kg of NT-4/5, respectively. Body weight and food intake were monitored 5 days per week through out the entire study. […] The body composition, i.e. percent lean body mass, fat content, and bone density was determined the day both before treatment started (day 0) and the final day of treatment (day 5) with a PIXImus Mouse Densitometer (GE Lunar Medical Systems, Madison, Wis.) using software version 1.46. […]
# [3] = test system: NONcNZO-10 polygenic obese mice; assay: Non-fasting blood triglyceride level in NONcNZO-10 mice (Example 4, Table 18); format: in vivo
# From the text: (§1) Test animals: 40 male NONcNZO-10 polygenic obese mice obtained from Jackson Laboratory at 10 weeks of age weighing in the range of 26-32 g were used in this study.
# (§2) Administration of NT-4/5: NT-4/5 was produced in E. coli as descried in U.S. Pat. No. 6,184,360. The mice were divided into 6 groups of equivalent body weight and baseline blood glucose distribution (6-7 mice per group). […] A “paired-fed” control group received daily injection of vehicle, but were only fed with the same amount of food the 3 mg/kg group consumed the previous day. On the day when the treatment started (day 1), a baseline blood samples were collected for measuring glucose and triglyceride. Triglyceride level was measured on day 10. At the end of the study (day 12), a terminal blood sample was collected to determine glucose, triglyceride, electrolytes (Na, K, Cl), testoterone, corticosterone, thyroid hormone (total T4) and thyroid stimulating hormone (TSH) levels. Electrolytes, free testosterone, T4 and TSH levels of serum samples were measured by AniLytics (Gaithesburg, M.D) according to the standard protocols employed by the vendor. Other analytes were measured as described above. Body weight, food intake were monitored 5 days per week through out the entire study. Daily water intake was measured from day 5 through day 7.
# [4] = test system: NONcNZO-10 polygenic obese mice; assay: Body weight in NONcNZO-10 mice (Example 4, Table 19); format: in vivo
# From the text: as §1, §2
molecule,measurement,setting,value
B1,Kd,p75NTR,2 nM
same,food intake as compared to vehicle,"db/db mice [1]; 2, 5, 10 and 20 mg/kg",significantly decreased food intake
same,food intake,"db/db mice [1]; Day 0, 2 mg/kg s.c. daily",7.79 g
same,food intake,"db/db mice [1]; Day 0, 5 mg/kg s.c. daily",7.26 g
same,food intake,"db/db mice [1]; Day 0, 10 mg/kg s.c. daily",7.48 g
same,food intake,"db/db mice [1]; Day 0, 20 mg/kg s.c. daily",7.46 g
same,food intake,"db/db mice [1]; Day 1, 2 mg/kg s.c. daily",5.20 g
same,food intake,"db/db mice [1]; Day 1, 5 mg/kg s.c. daily",4.55 g
same,food intake,"db/db mice [1]; Day 1, 10 mg/kg s.c. daily",4.13 g
same,food intake,"db/db mice [1]; Day 1, 20 mg/kg s.c. daily",4.11 g
same,food intake,"db/db mice [1]; Day 2, 2 mg/kg s.c. daily",5.87 g
same,food intake,"db/db mice [1]; Day 2, 5 mg/kg s.c. daily",4.86 g
same,food intake,"db/db mice [1]; Day 2, 10 mg/kg s.c. daily",5.18 g
same,food intake,"db/db mice [1]; Day 2, 20 mg/kg s.c. daily",4.66 g
same,food intake,"db/db mice [1]; Day 3, 2 mg/kg s.c. daily",3.89 g
same,food intake,"db/db mice [1]; Day 3, 5 mg/kg s.c. daily",3.99 g
same,food intake,"db/db mice [1]; Day 3, 10 mg/kg s.c. daily",3.85 g
same,food intake,"db/db mice [1]; Day 3, 20 mg/kg s.c. daily",3.39 g
same,food intake,"db/db mice [1]; Day 4, 2 mg/kg s.c. daily",4.79 g
same,food intake,"db/db mice [1]; Day 4, 5 mg/kg s.c. daily",3.69 g
same,food intake,"db/db mice [1]; Day 4, 10 mg/kg s.c. daily",4.00 g
same,food intake,"db/db mice [1]; Day 4, 20 mg/kg s.c. daily",3.40 g
same,food intake,"db/db mice [1]; Day 5, 2 mg/kg s.c. daily",4.19 g
same,food intake,"db/db mice [1]; Day 5, 5 mg/kg s.c. daily",3.79 g
same,food intake,"db/db mice [1]; Day 5, 10 mg/kg s.c. daily",3.60 g
same,food intake,"db/db mice [1]; Day 5, 20 mg/kg s.c. daily",3.06 g
same,food intake,"db/db mice [1]; Day 6, 2 mg/kg s.c. daily",3.99 g
same,food intake,"db/db mice [1]; Day 6, 5 mg/kg s.c. daily",3.00 g
same,food intake,"db/db mice [1]; Day 6, 10 mg/kg s.c. daily",2.56 g
same,food intake,"db/db mice [1]; Day 6, 20 mg/kg s.c. daily",1.71 g
same,food intake,"db/db mice [1]; Day 7, 2 mg/kg s.c. daily",4.13 g
same,food intake,"db/db mice [1]; Day 7, 5 mg/kg s.c. daily",3.48 g
same,food intake,"db/db mice [1]; Day 7, 10 mg/kg s.c. daily",3.21 g
same,food intake,"db/db mice [1]; Day 7, 20 mg/kg s.c. daily",2.03 g
same,triglyceride level as compared to vehicle,db/db mice [2],Significant reduction
same,respiratory quotient (RQ=Vco2/Vo2),"DIO mice; 10 mg/kg s.c. daily, P=0.0025",reduced the respiratory quotient
same,estimated cumulative energy expenditure,"DIO mice; day 1 to day 5, 10 mg/kg, vs vehicle",No change
same,non-fasting blood triglyceride levels,[3]; daily subcutaneous injection,significantly reduced
same,non-fasting blood triglyceride level,[3]; lowest dose 0.1 mg/kg/day s.c.,significantly reduced
same,body weight loss relative to the vehicle control,[4]; 1 mg/kg,about 5%
same,body weight loss relative to the vehicle control,[4]; 3 mg/kg,about 10%
same,body weight,[4]; dose dependent manner,reduced body weight
